According to patent US20220334106, “CONJUGATE” (DENSO CORPORATION, published 2022):

Target: T1, alpha-amylase (UniProt P0DUB6 P0DUB6:16-511)
T1 sequence: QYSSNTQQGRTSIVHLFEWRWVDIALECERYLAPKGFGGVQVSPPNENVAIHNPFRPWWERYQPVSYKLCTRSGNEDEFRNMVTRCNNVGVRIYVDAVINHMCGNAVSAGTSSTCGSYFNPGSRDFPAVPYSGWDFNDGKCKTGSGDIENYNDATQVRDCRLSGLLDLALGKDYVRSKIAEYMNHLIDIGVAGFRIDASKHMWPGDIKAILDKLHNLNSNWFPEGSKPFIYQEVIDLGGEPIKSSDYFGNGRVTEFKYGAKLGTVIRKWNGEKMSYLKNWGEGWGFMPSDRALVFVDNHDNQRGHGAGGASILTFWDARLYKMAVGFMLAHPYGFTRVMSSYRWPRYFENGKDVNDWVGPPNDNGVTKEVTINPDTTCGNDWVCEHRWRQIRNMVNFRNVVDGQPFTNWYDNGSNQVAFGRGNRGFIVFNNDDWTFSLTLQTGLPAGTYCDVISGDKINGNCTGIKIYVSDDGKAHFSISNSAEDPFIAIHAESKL
Test: ELONA
Settings: tags: Lee Biosolutions 120-17

B1: DNA aptamer to SARS-CoV-2 spike RBD, alkaline phosphatase conjugate (ssDNA)
DNA: CAGCACCGACCTTGTGCTTTGGGAGTGCTGGTCCAAGGGCGTTAATGGACA
modifications: 5' biotin via C6 spacer
  binding result: no binding
